Here are results for one substance from patent publication US5885831.

Test [1] addresses LexA-TIM1 (Drosophila melanogaster). The experiment in a line: yeast two-hybrid, β-galactosidase activity of liquid cultures, LexA-TIM1, 22 C.
Test [2] shares this target. The experiment in a line: yeast two-hybrid, β-galactosidase activity of liquid cultures, LexA-TIM1, 28 C.
The target is the same in test [3]. The experiment in a line: yeast two-hybrid, β-galactosidase activity of liquid cultures, LexA-TIM1, 35 C.

Regarding VP16-PER^L233-685 (from UniProt P07663), the fold change of the TIM interaction signal (β-galactosidase activity) against the wild type PER fragment amounted to 3.4 fold higher in test [1], 1.8 fold higher in test [2] and 4.8 fold lower in test [3].
